Experimental findings from PMC3830444 are described below.

For this test, the target named is FPR-chloromethyl ketone-thrombin (active site-inhibited α-thrombin) (human), P00734. The test is described as follows: ELISA. For orientation: ELISA stands for enzyme-linked immunosorbent assay.

In general, IC50 refers to the point on the concentration scale where inhibition reaches its midpoint. Higher therefore signals weaker potency.

Regarding GDFEPIPEDAYDE (modifications not checked) [H6HV3_(54-66)G6 synthetic peptide], the IC50 turned out to be 5 µM.
